In patent EP4242225A1 (Consejo Superior De Investigaciones Científicas, dated 2023):

B1: bispecific hcAb 1.29-1.10 (bispecific antibody)
heavy: QVQLVESGGGSVQAGGSLRLSCAASGYTINTDAVAWFRQAPGKGDERVAVIYTGSGNTNYADSVKGRFTISQDNAKNTVYLQMNSLKPEDTALYYCASGYYGASGYDFNNWGQGTQVTVSSGGGGSGGGGSGGGGSQVQLVESGGGSVQAGGSLRLSCAASGYTYSTCRKGWYRQAPGKERELVASITADGATYYLDSVKGRLTISQDNAKNTVYLQMNSLKPEDTAVYYCAASVKDFTCTFNSWGQGTQVTVSS
B2: hcAb 1.26 (Fc fusion)
heavy: QVQLVESGGGLVQAGGSLRLSCAATGYTWSSVCMGWFRQAPGKEREGVAGIPSGRNRPYYADSVKGRFTISQDNAKNAVFLLMNSLKPEDTAIYYCAPCSAPHDPEYNYWGQGTQVTVSS
B3: hcAb 1.29 (Fc fusion)
heavy: QVQLVESGGGSVQAGGSLRLSCAASGYTINTDAVAWFRQAPGKGDERVAVIYTGSGNTNYADSVKGRFTISQDNAKNTVYLQMNSLKPEDTALYYCASGYYGASGYDFNNWGQGTQVTVSS
B4: hcAb 2.20 (Fc fusion)
heavy: QVQLVESGGGSVQAGGSLRLSCAASGYTYNNYYMGWFRQAPGKEREGVAAINSDGLDTYVADSVKGRFTISRDNAKDTVHLQMNSLKPEDTAIYSCATGRTVYYSGYDFRLSVDDYWGQGTQVTVSS
notes: also called 2.20Fc; 2.20 hcAb
B5: hcAb 1.16 (Fc fusion)
heavy: QVQLVESGGGSVQAGGSLRLSCAASGNTSKRKCVGWFRRAPGKEREGVTLIYTVGGSTVYADSVKGRFTISQDNAKDTVYLQMNSLKPEDSAMYYCAAESWGRQCNLETHRFTFWGQGTQVTVSS
notes: also called 1.16Fc
B6: hcAb 2.1 (Fc fusion)
heavy: QVQLVESGGGSVQAGGSLRLSCAAFGATISSAHMGWFRQAPGKEREGVAFRYTDGSSTYYTTSVRGRFTISQDNAKNTVYLQMNSLKPEDTAMYYCASNPSWGRLVGGQYNNWGQGTQITVSS
notes: also called 2.1Fc
B7: hcAb 2.11 (Fc fusion)
heavy: QVQLVESGGGSVQAGGSLRLSCAASGDASNRKCVSWFRRAPGKEREGVALIFPVGSSTAYADSVKGRFTISQDSAKDTVYLQMNNLKPEDSGTYYCAAVSWGGRCNLETQTVTFWGQGTQVTVSS
notes: also called 2.11Fc
B8: Nb 1.26 (VHH)
VHH: B2 heavy
B9: Nb 2.20 (VHH)
VHH: B4 heavy
B10: Nb 1.29 (VHH)
VHH: B3 heavy
B11: Nb 1.16 (VHH)
VHH: B5 heavy
B12: Nb 2.1 (VHH)
VHH: B6 heavy
B13: Nb 2.11 (VHH)
VHH: B7 heavy
B14: hcAb 1.10 (Fc fusion)
heavy: QVQLVESGGGSVQAGGSLRLSCAASGYTYSTCRKGWYRQAPGKERELVASITADGATYYLDSVKGRLTISQDNAKNTVYLQMNSLKPEDTAVYYCAASVKDFTCTFNSWGQGTQVTVSS
B15: hcAb 2.15 (Fc fusion)
heavy: QVQLVESGGGSVQAGGSLKLSCAASGYASWARKCIGWFRQAPGQEREGVAAIFDFDGSTYYSDSVKGRFTISGDNAKNTVSLQMNSLLPKDTAVYYCTVAFGTCDNWYRGRGDYWGQGTQVTVSS

Target: T1, RBD-Fc, Wuhan strain (WA1) (SARS-CoV-2; human, UniProt P0DTC2 332-534)
T1 construct: range 332-534; also called WA1 RBD; WA1 RBD-Fc
Experiment: ELISA, biotin-labeled bispecific hcAb on plate-bound RBD-Fc

Binder | binding result
B1 | binds

Target: T2, monomeric RBD of SARS-CoV-2 S (WA1) (SARS-CoV-2, UniProt P0DTC2 332-534)
T2 construct: domain: RBD
Experiment: ELISA, hcAb dilutions on plate-bound monomeric RBD

Binder | EC50 [nM]
B2 | 1
B3 | 35

Target: T3, RBD-FH, monomeric RBD (332-534) with a FLAG peptide and an 8xHis-tag at the C-terminus (SARS-CoV-2, UniProt P0DTC2 332-534)
Experiment: not given

Binder | Kd [nM] | koff [s⁻¹] | kon [M⁻¹ s⁻¹]
B2 | 0.08 | 0.000148 | 1.76e+06
B4 | 0.21 | 0.000233 | 1.09e+06
B3 | 0.63 | 0.000221 | 353000
B5 | 0.25 | 0.000438 | 1.72e+06
B6 | 0.36 | 0.000281 | 771000
B7 | 0.16 | 0.0003 | 1.82e+06

Target: T3, RBD-FH, monomeric RBD (332-534) with a …
Experiment: not given
Remark: another data set of the same source

Binder | Kd [nM] | koff [s⁻¹] | kon [M⁻¹ s⁻¹]
B8 | 0.26 | 0.000624 | 2.44e+06
B9 | 0.77 | 0.00101 | 1.3e+06
B10 | 12.9 | 0.00614 | 476000
B11 | 3.59 | 0.00705 | 1.96e+06
B12 | 1.74 | 0.00233 | 1.34e+06
B13 | 1.72 | 0.0054 | 3.15e+06

Target: S protein of SARS-CoV-2 on pseudotyped retroviral particles (Spp) (SARS-CoV-2, UniProt P0DTC2 14-1273)
Experiment: cell-based or functional assay

Binder | inhibition of Spp entry into Vero-E6 cells (luciferase, 48 h.p.i.) [%]
B14 | > 90
B2 | ≥ 90
B4 | ≥ 90
B3 | ≥ 90
B6 | > 90
B15 | > 90
